Data published in US20180303952 (published 2018).

Biological target: T1, human CD147 (human, UniProt P35613)
T1 chain: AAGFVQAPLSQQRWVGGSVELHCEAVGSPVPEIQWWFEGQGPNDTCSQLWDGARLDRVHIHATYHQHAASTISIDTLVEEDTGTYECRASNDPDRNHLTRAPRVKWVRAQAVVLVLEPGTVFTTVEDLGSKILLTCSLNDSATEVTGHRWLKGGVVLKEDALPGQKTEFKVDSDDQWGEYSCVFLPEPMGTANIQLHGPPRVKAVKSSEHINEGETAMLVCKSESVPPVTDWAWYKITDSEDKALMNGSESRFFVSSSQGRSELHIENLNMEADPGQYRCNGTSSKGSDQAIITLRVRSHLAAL
Assay: ELISA

- Kd: 0.293 nM
B1: mouse 3A11 (antibody, V domains shown)
VH: EVQLVESGGGLVQPGGSLRLSCAASGFTFSNYWMDWVRQAPGKGLEWVGEIRLKSYNYATHYAASVKGRFTISRDDSKNSVYLQMNSLKTEDTAVYYCTAAGTDYWGQGTLVTVSS
VL: SIVMTQIPKILLVSAGDRVTITCKASQSVRTDVAWYQQKPGQSPKLLIYYSSNRYTGVPDRFTGSGYGTDFTFTISTVQAEDLAVYFCQQDYSSPFTFGSGTKLEIK
